Test results reported in patent US7592163B2 (The Board of Trustees of the University of Illinois, priority 2004, dated 2009).

Experiments:
N. crassa XR = molecular target: T1, N. crassa XR (Neurospora crassa, UniProt Q7SD67); assay: Kinetic analysis of N. crassa XR: initial rates, NAD(P)H consumption at 340 nm, with cofactors and sugar substrates; assay type: biochemical; settings: for fold difference in catalytic efficiency (kcat/KM) between NADPH and NADH: NADPH favoured over NADH; for kcat: xylose reduction with the named coenzyme, 25° C., 50 mM MOPS pH 6.3; for acts as substrate for N. crassa XR: NADPH as the cofactor
T1 sequence (Q7SD67 1-322): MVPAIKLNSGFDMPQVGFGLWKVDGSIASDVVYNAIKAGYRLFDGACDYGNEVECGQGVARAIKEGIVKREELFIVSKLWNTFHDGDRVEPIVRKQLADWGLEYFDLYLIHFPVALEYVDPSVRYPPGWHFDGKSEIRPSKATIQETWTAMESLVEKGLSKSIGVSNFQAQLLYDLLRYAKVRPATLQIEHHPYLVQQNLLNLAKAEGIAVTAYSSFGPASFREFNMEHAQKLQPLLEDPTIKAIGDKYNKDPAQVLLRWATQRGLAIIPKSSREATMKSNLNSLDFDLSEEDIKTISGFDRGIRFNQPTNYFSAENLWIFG
Procedure: Michaelis-Menten constants (KM) were determined for both cofactors as well as for xylose with either cofactor. The maximum turnover number (kcat) was also determined with both cofactors. […] Xylose concentrations were varied from 10 to 250 mM while either cofactor concentration was held at 160 μM.
Analysis of substrate specificity.
Kinetic Analysis. […] All initial rate assays were carried out at 25° C. in 50 mM MOPS pH 6.3 using a Varian Cary 100 Bio UV-visible spectrophotometer unless otherwise noted. The reaction was initiated by addition of 0.1-1 μg of XR. […] The data were then converted to turnover number and fitted by non-linear regression analysis to the Michaelis-Menten equation using Origin 5.0. […] All assays were performed in duplicate or triplicate at least two times. The kinetic data presented represent averages of statistically relevant measurements and with their associated standard deviations.

[1] = literature, cited from earlier work; for kcat / Km: with NADPH as cofactor; for Km: read-out: KM, Xylose
[2] = substrate: OC1OC[C@@H](O)[C@@H](O)[C@H]1O; assay: Kinetic analysis of N. crassa XR: initial rates, NAD(P)H consumption at 340 nm, with cofactors and sugar substrates; assay type: biochemical, Neurospora crassa; settings: other: KM of the sugar substrate, NADPH as cofactor, 25° C., 50 mM MOPS pH 6.3
[3] = substrate: OC1OC[C@H](O)[C@H](O)[C@H]1O; assay: as above; assay type: biochemical, Neurospora crassa; settings: other: KM of the sugar substrate, NADPH as cofactor, 25° C., 50 mM MOPS pH 6.3
[4] = substrate: OC1OC[C@@H](O)[C@H](O)[C@H]1O; assay: as above; assay type: biochemical, Neurospora crassa; settings: other: KM of the sugar substrate, NADPH as cofactor, 25° C., 50 mM MOPS pH 6.3

Nicotinamide adenine dinucleotide reduced [NADH]
fold difference in catalytic efficiency (kcat/KM) between NADPH and NADH (N. crassa XR): 100 fold | kcat (N. crassa XR): 5.17 ± 0.167 s⁻¹

O=C(CO)[C@@H](O)[C@H](O)[C@H](O)CO [D-fructose]
acts as substrate for N. crassa XR (N. crassa XR): did not act as substrates

OC[C@H]1O[C@@](CO)(O[C@H]2O[C@H](CO)[C@@H](O)[C@H](O)[C@H]2O)[C@@H](O)[C@@H]1O [sucrose]
acts as substrate for N. crassa XR (N. crassa XR): did not act as substrates

Nicotinamide adenine dinucleotide phosphate reduced [NADPH]
fold difference in catalytic efficiency (kcat/KM) between NADPH and NADH (N. crassa XR): 100 fold | kcat (N. crassa XR): 60 ± 1.67 s⁻¹

O=C[C@@H](O)[C@H](O)[C@H](O)CO [D-arabinose]
acts as substrate for N. crassa XR (N. crassa XR): did not act as substrates | acts as substrate for N. crassa XR (N. crassa XR; listed as D-arabinos): activity

B1: P. stipitus: NADPH-dependent xylose reductase from P. stipitus, literature (protein, UniProt P31867 1-318, looked up)
NAD(P)H-dependent D-xylose …: MPSIKLNSGYDMPAVGFGCWKVDVDTCSEQIYRAIKTGYRLFDGAEDYANEKLVGAGVKKAIDEGIVKREDLFLTSKLWNNYHHPDNVEKALNRTLSDLQVDYVDLFLIHFPVTFKFVPLEEKYPPGFYCGKGDNFDYEDVPILETWKALEKLVKAGKIRSIGVSNFPGALLLDLLRGATIKPSVLQVEHHPYLQQPRLIEFAQSRGIAVTAYSSFGPQSFVELNQGRALNTSPLFENETIKAIAAKHGKSPAQVLLRWSSQRGIAIIPKSNTVPRLLENKDVNSFDLDEQDFADIAKLDINLRFNDPWDWDKIPIFV
Optimal pH [1]: 6.0 | kcat [1]: 25 s⁻¹ | Km [1]: 42 mM

B2: C. tenuis: xylose reductase from Candida tenuis, literature (protein, UniProt O74237 1-322, looked up)
NAD(P)H-dependent D-xylose …: MSASIPDIKLSSGHLMPSIGFGCWKLANATAGEQVYQAIKAGYRLFDGAEDYGNEKEVGDGVKRAIDEGLVKREEIFLTSKLWNNYHDPKNVETALNKTLADLKVDYVDLFLIHFPIAFKFVPIEEKYPPGFYCGDGNNFVYEDVPILETWKALEKLVAAGKIKSIGVSNFPGALLLDLLRGATIKPAVLQVEHHPYLQQPKLIEFAQKAGVTITAYSSFGPQSFVEMNQGRALNTPTLFAHDTIKAIAAKYNKTPAEVLLRWAAQRGIAVIPKSNLPERLVQNRSFNTFDLTKEDFEEIAKLDIGLRFNDPWDWDNIPIFV
NADH-dependent XR kcat ([1]; NADH as cofactor): 18.33 s⁻¹ | Optimal pH [1]: 6.0 | kcat [1]: 21.67 s⁻¹ | Km [1]: 72 mM

B3: N. crassa XR (Neurospora crassa OR74A) (protein)
chain: MVPAIKLNSGFDMPQVGFGLWKVDGSIASDVVYNAIKAGYRLFDGACDYGNEVECGQGVARAIKEGIVKREELFIVSKLWNTFHDGDRVEPIVRKQLADWGLEYFDLYLIHFPVALEYVDPSVRYPPGWHFDGKSEIRPSKATIQETWTAMESLVEKGLSKSIGVSNFQAQLLYDLLRYAKVRPATLQIEHHPYLVQQNLLNLAKAEGIAVTAYSSFGPASFREFNMEHAQKLQPLLEDPTIKAIGDKYNKDPAQVLLRWATQRGLAIIPKSSREATMKSNLNSLDFDLSEEDIKTISGFDRGIRFNQPTNYFSAENLWIFG
Km [2]: 70 ± 10 mM | kcat/Km [2]: 750 M⁻¹ s⁻¹ | Km [3]: 40 ± 10 mM | kcat [3]: 30 ± 1.67 s⁻¹ | kcat/Km [3]: 750 M⁻¹ s⁻¹ | Km [4]: 34 mM | kcat [4]: 60 ± 3.33 s⁻¹ | kcat/Km [4]: 1830 M⁻¹ s⁻¹

B4: S. cerevisiae: xylose reductase from S. cerevisiae, literature (protein, UniProt P38715 2-327, looked up)
NADPH-dependent aldose …: SSLVTLNNGLKMPLVGLGCWKIDKKVCANQIYEAIKLGYRLFDGACDYGNEKEVGEGIRKAISEGLVSRKDIFVVSKLWNNFHHPDHVKLALKKTLSDMGLDYLDLYYIHFPIAFKYVPFEEKYPPGFYTGADDEKKGHITEAHVPIIDTYRALEECVDEGLIKSIGVSNFQGSLIQDLLRGCRIKPVALQIEHHPYLTQEHLVEFCKLHDIQVVAYSSFGPQSFIEMDLQLAKTTPTLFENDVIKKVSQNHPGSTTSQVLLRWATQRGIAVIPKSSKKERLLGNLEIEKKFTLTEQELKDISALNANIRFNDPWTWLDGKFPTFA
kcat [1]: 14.3 s⁻¹ | Km [1]: 13.6 mM
